Experimental data: patent US20120100134A1, “GENETIC VARIANTS IN ANGIOGENESIS PATHWAY ASSOCIATED WITH CLINICAL OUTCOME” (University of Southern California, priority 2009, published 2012)

System: advanced NSCLC patients
Assay: Toxicity: grade3-4 hypertension versus genotype, E4599 subset
Type: in vivo, human
Conditions: bevacizumab arm
Description: The problem, however, is that there is hardly any power to do this. There were a total of 30 cases on E4599 who reported grade3-4 hypertension of any attribution type on this study. Once these cases are merged with the correlatives dataset, there is an overlap of only 7 hypertension cases in the correlative study. The distribution of hypertension versus genotype for these VEGF polymorphisms, as well as the WNK1 polymorphisms is as follows: […]

Bevacizumab was tested, and the “HTN (number of patients, grade3-4 hypertension)” value (VEGF634 CC) was 1, the “No HTN (number of patients)” value (VEGF634 CC) was 10 and the “HTN (number of patients, grade3-4 hypertension)” value (VEGF634 GC) was 0. For the same substance, the “HTN (number of patients, grade3-4 hypertension)” value (VEGF634 GG) was 6, the “No HTN (number of patients)” value (VEGF1498 CC) was 18 and the “HTN (number of patients, grade3-4 hypertension)” value (VEGF1498 CT) was 1. The “No HTN (number of patients)” value (VEGF1498 CT) was 21, the “No HTN (number of patients)” value (VEGF1498 TT) was 17 and the “HTN (number of patients, grade3-4 hypertension)” value (WNK1-2158501 GG (so in the source)) was 1. The “No HTN (number of patients)” value (WNK1-2158501 TT (so in the source)) was 18, the “HTN (number of patients, grade3-4 hypertension)” value (WNK1-110644560 GG) was 0 and the “No HTN (number of patients)” value (WNK1-110644560 GG) was 7. The “HTN (number of patients, grade3-4 hypertension)” value (WNK1-110644560 GT) was 1, the “HTN (number of patients, grade3-4 hypertension)” value (WNK1-110644560 TT) was 6 and the “No HTN (number of patients)” value (WNK1-110644560 TT) was 18.
